Data published in the DeepSol protein solubility set.

Experiment: soluble on expression in E. coli; label from the status in PepcDB or PDB records

| Sequence | soluble on expression in E. coli |
| --- | --- |
| MRAPRWLWLVILLSGSAAADWREVLPNAQVVGGGELTLFGFRVYTARLLSPAKPFVADAPMALELTYHRNIDREDLVDASIDEIKRISGARVTTEQLAAWREQMNQSFVDVQPGMKITGVYLPGREARFYVGDKLQHVVPDSQFAKAFFSIWLDPKTRNPELREQLLGSTGS | not soluble |
| MCGRIAQKSAPEDYVEILWPNARLIFDDVAGPRYNIPPGTRPLTMHRLVDQAEALARLPWGYKPHGSSFFMINAKLETIERHGWPWKLMIGTGRILVPADGWYEWKALDSGPKPAKQPYYIHGDAPLLFAGLSAWRRGAELDEAHGFAIVTNDALGGMVDVHDRRPVALPPELAREWVDPATPVARAKEILRAGLPETAFSWYPVRQEVGSSKYQLPDAVDPLLEHHHHHH | soluble |
| MSLICKRFALVGSGFIGQVHAASLARHEGSALTMVADAAPERAQALAARYGARAVTVSEAIHSDAIDAVLIASSTPSHAELLEAAARAGKAVYCEKPIDLSLARAREVVERVLPLNVPVTVGFNRRFDSSHQQLRRQLEQGLIGRVELVQMVCRASSMPPLDYLRSSGGQMRDQAIHFFDLLRFLTGDEVRTVAAMGAALALPDIAEFGDVDTSILMMQMRGGALAQLDNTRRTGHGYDERITLLGAEGALESGSQSPAGPTLWRGNQRIEPGLWPDWFSRVQGSYYQHLDAFIRSLNGETVADLPGLLDGLQAQAIAEAAVQSLQHGQFVAVDDEGHHHHHH | soluble |
| MTKLTIFYDGTCPLCAKEMKALRQHDHKQEINTVDIYSDAFSAYPQINPDRANTILHALDNQGNLLLGLDVTYRAWQLVGRGWLYAPLRWPLIRPVADWLYLRFAQNRYRISYWLTGTSRCNSGRCSRLEHHHHHH | soluble |
| MIQSGKIYIRGRTVVFMIIRNEQDLEGLRKIGRIVALAREEMKKEAKPGMTTKELDLIGKKVLDEHGAISAPEKEYDFPGVTCISVNEEVAHGIPGDRVLKEGDLVNVDVSAALDGYYADTGISFVLGEDEAKEKLCQAAVDAFWAAMKKVKAGSKQNQIGRAVSNFAHKNGYNVIQNLTGHGIGLSLHEAPNHILSYFDPMDNALLKDGLVIAVEPFISMKADHIIERGDDGWTFVTPDKSLVAQCEHTVVVTRGEPIILTEI | soluble |
| MKITREELAVQVDVAQWSWLRAHLERGGLIVVNRGLDLVEVGVSIASDDTAVVGDWIQTGLLAKPSAEQISAWDANEEISFSALIISPYVLIQEQKQ | not soluble |
| GSHMIKVLSPAKINLGLWVLGRLPSGYHEILTLYQEIPFYDEIYIREGVLRVETNIGIPQEENLVYKGLREFERITGIEINYSIFIQKNIPPGAGLGGGSSNLAVVLKKVNELLGSPLSEEELRELVGSISADAPFFLLGKSAIGRGKGEVLEPVETEISGKITLVIPQVSSSTGRVYSSLREEHFVTPEYAEEKIQRIISGEVEEIENVLGDIARELYPEINEVYRFVEYLGFKPFVSGSGSTVYFFGGASEELKKAAKMRGWKVVELEL | soluble |
| DIQMTQSPSSLSASVGDRVTITCQASQDITNHLNWYQQKPGKAPKLLIYDASNLETGVPSRFSGRGSGTHFTFTISSLQPADIATYYCQEYDYLPQTFGGGTKVEIK | soluble |
| MSLSKIKWWEMSRSFVLDEPETAILQIKPFPLPGLAQVPARIVLSQYRGLFYLNAYQDLDYQQRIYKSAPLPLLSPEDLRNCVSPDNPIQVSDNWPPSNTLDTGITLTPLGFDCSVPPQWQLSLRYLLIDQRDPQHPLLAISHRQDMTQMDFTPLQPISVETGQQWLQALQKFPPWFRAFDSGSGPITLNAYTPPATADSVWKQFRALHEQLRTAKDKGPGIRQVEDFFALHDYRSIAIDHSEYPGLLNDIAYWTSEAGQLNTARNWLLEVLRRDLGRMPTYLNLADLDWALFEQRPLDNIHQGRAIEGYRLYCGMRLQRQMSVPPRVLKRLGLESANPQACQGFWPLVAAADAGDEAEVRRLLASGVSGEVMAEDGRSALLHALDAPHLEIARLLLAHGAHTSGQYQWSTLAMLAMQRDLKDSPDLNQGGRLKFLLQAGVAIDEPNSRGQTPLMKLAEQERNLQGFTWLLQHPQNLDLRTVDDGETALYRAFWSNNYPAMKLLIEAGADLNLSYGRGTCGNEPMGQSLLMLVADKISPDQHSPIVSMQDTLDMFTLLLEKGADPNVGQRCEKKGRPLLLEIIARKKRDDMLKVLQGFAPPAPATAFREGHHHHHH | not soluble |
| MSLSLDQESIEHDLKLTSEEIFHSNGKYIPPMLNTLGQHLSVRKEFFQNFLTFVAKNFNYKISPELKLDLIEKFEILNCCIKFNSIIRQSDVLNDIWEKTLSNYNLTQNEHLTTKTVVINSPDVFPVIFKQFLNHVVFVLFPSQNQNFKLNVTNLINLCFYDGILEEGEKTIRYELLELDPMEVDTSKLPWFINFDYLNCINQCFFDFTFACEEEGSLDSYKEGLLKIVKILYYQFNQFKIWINTQPVKSVNANDNFININNLYDDNHLDWNHVLCKVNLKEQCIQIAEFYKDLSGLVQTLQTLDEGHHHHHH | not soluble |
| MTHDNIDILVVDDDISHCTILQALLRGWGYNVALANSGRQALEQVREQVFDLVLCDVRMAEMDGIATLKEIKALNPAIPVLIMTAYSSVETAVEALKTGALDYLIKPLDFDNLQATLEKALAHTHSIDAETPAVTASQFGMVGKSPAMQHLLSEIALVAPSEATVLIHGDSGTGKELVARAIHASSARSEKPLVTLNCAALNESLLESELFGHEKGAFTGADKRREGRFVEADGGTLFLDEIGDISPMMQVRLLRAIQEREVQRVGSNQIISVDVRLIAATHRDLAAEVNAGRFRQDLYYRLNVVAIEVPSLRQRREDIPLLAGHFLQRFAERNRKAVKGFTPQAMDLLIHYDWPGNIRELENAVERAVVLLTGEYISERELPLAIASTPIPLGQSQDIQPLVEVEKEVILAALEKTGGNKTEAARQLGITRKTLLAKLSR | soluble |
| MHHHHHHSSGVDLGTENLYFQSMSFAVGMFKGQLTTDQVFPYPSVLNEEQTQFLKELVEPVSRFFEEVNDPAKNDALEMVEETTWQGLKELGAFGLQVPSELGGVGLCNTQYARLVEIVGMHDLGVGITLGAHQSIGFKGILLFGTKAQKEKYLPKLASGETVAAFCLTEPSSGSDAASIRTSAVPSPCGKYYTLNGSKLWISNGGLADIFTVFAKTPVTDPATGAVKEKITAFVVERGFGGITHGPPEKKMGIKASNTAEVFFDGVRVPSENVLGEVGSGFKVAMHILNNGRFGMAAALAGTMRGIIAKAVDHATNRTQFGEKIHNFGLIQEKLARMVMLQYVTESMAYMVSANMDQGATDFQIEAAISKIFGSEAAWKVTDECIQIMGGMGFMKEPGVERVLRDLRIFRIFEGTNDILRLFVALQGCMDKGKELSGLGSALKNPFGNAGLLLGEAGKQLRRRAGLGSGLSLSGLVHPELSRSGELAVRALEQFATVVEAKLIKHKKGIVNEQFLLQRLADGAIDLYAMVVVLSRASRSLSEGHPTAQHEKMLCDTWCIEAAARIREGMAALQSDPWQQELYRNFKSISKALVERGGVVTSNPLGF | soluble |
| SLLEECDFPTVKDIENEFEQLKEKNVRAVARLITMAEEQAKTKEAAVTLDDKLVSLKKLNQPSPPVLGITGTGGAGKSSLTDELVRRFLNEFTDKTVAILSIDPTKQKTGGALLGDRIRMNAIHSPRVFMRSLATRGSRTEISESIRDAIAVVKAAAYDLVIVETSGIGQGDAEITEIADISMYVMTSEYGAPSQLEKIDMIDFADVIAINKFDRKGSEDALRHVRKQYQRSHQRFDEPLEAMPVYGTIASQFNDIGTNTLFAAVIDILNKKCKTSWDTSIETSKEVMKQNIIIPPERTQYLRDIVQTVKQYK | soluble |
| MIRKDLQKLEQEGLLKRTYGGAILERQTIHDDNIRPRLMKNLGEKDIIAKLALKEIKDGDFIFLDASTTNYSIASMLLNTKKQVTVVTNMNRIAILFDSHPSIDVICIGGIYNKNLGGTIGSKAIEDVKSYRFHKAFVGVGGINLVEDFISNFNLEEASMKNAIIKSSLKTYLVAENEKFYTDGICEFAKCEDIDFIISDKKPNEEILKLLKERNISIIYLEHHHHHH | soluble |
| PDITATPAWDALARHHDQIGNTHLRQFFADDPGRGRELTVSVGDLYIDYSKHRVTRETLALLIDLARTAHLEERRDQMFAGVHINTSEDRAVLHTALRLPRDAELVVDGQDVVTDVHAVLDAMGAFTDRLRSGEWTGATGKRISTVVNIGIGGSDLGPVMVYQALRHYADAGISARFVSNVDPADLIATLADLDPATTLFIVASKTFSTLETLTNATAARRWLTDALGDAAVSRHFVAVSTNKRLVDDFGINTDNMFGFWDWVGGRYSVDSAIGLSLMTVIGRDAFADFLAGFHIIDRHFATAPLESNAPVLLGLIGLWYSNFFGAQSRTVLPYSNDLSRFPAYLQQLTMESNGKSTRADGSPVSADTGEIFWGEPGTNGQHAFYQLLHQGTRLVPADFIGFAQPLDDLPTAEGTGSMHDLLMSNFFAQTQVLAFGKTAEEIAADGTPAHVVAHKVMPGNRPSTSILASRLTPSVLGQLIALYEHQVFTEGVVWGIDSFDQWGVELGKTQAKALLPVITGAGSPPPQSDSSTDGLVRRYRTERGRAGLE | soluble |
| MHNVVFVLGPPGSGKGTICAKIQENLNYVHLSAGDLLRAERQREGSEFGALIESHIKNGSIVPVEITCSLLENAMKACGDAKGFLVDGFPRNEDNLQGWNKQMDGKALVQFVLFLSCPVSICIERCLNRGQGRTDDNEESLKKRVETYNQQTFPIIEHFEKSGLVREVKSERPVDVVYADVEKVFDAANKK | not soluble |
| MGSDKIHHHHHHMLNQSNELNAWDRDHFFHPSTHMGTHARGESPTRIMAGGEGVTVWDNNGRKSIDAFAGLYCVNVGYGRQKIADAIATQAKNLAYYHAYVGHGTEASITLAKMIIDRAPKGMSRVYFGLSGSDANETNIKLIWYYNNVLGRPEKKKIISRWRGYHGSGVMTGSLTGLDLFHNAFDLPRAPVLHTEAPYYFRRTDRSMSEEQFSQHCADKLEEMILAEGPETIAAFIGEPILGTGGIVPPPAGYWEKIQAVLKKYDVLLVADEVVTGFGRLGTMFGSDHYGIKPDLITIAKGLTSAYAPLSGVIVADRVWQVLVQGSDKLGSLGHGWTYSAHPICVAAGVANLELIDEMDLVTNAGETGAYFRAELAKAVGGHKNVGEVRGDGMLAAVEFVADKDDRVFFDASQKIGPQVATALAASGVIGRAMPQGDILGFAPPLCLTREQADIVVSKTADAVKSVFANL | not soluble |
| MRPKVGVLLKMKREALEELKKYADVEIILYPSGEELKGVIGRFDGIIVSPTTKITREVLENAERLKVISCHSAGYDNIDLEEATKRGIYVTKVSGLLSEAVAEFTVGLIINLMRKIHYADKFIRRGEWESHAKIWTGFKRIESLYGKKVGILGMGAIGKAIARRLIPFGVKLYYWSRHRKVNVEKELKARYMDIDELLEKSDIVILALPLTRDTYHIINEERVKKLEGKYLVNIGRGALVDEKAVTEAIKQGKLKGYATDVFEKEPVREHELFKYEWETVLTPHYAGLALEAQEDVGFRAVENLLKVLRGEVPEDLVNKEVLEVRPIENVKML | soluble |
| MGHHHHHHSHMEGSFSDGGALPEGLAEEAEPQGAAWSGDSGTVSQSHSSASGPWEDEGAEDGAPGRDLPLLRRAAAGYAACLLPGAGARPEVEALDASLEDLLTRVDEFVGMLDMLRGDSSHVVSEGVPRIHAKAAEMRRIYSRIDRLEAFVRMVGGRVARMEEQVTKAEAELGTFPRAFKKLLHTMNVPSLFSKSAPSRPQQAGYEAPVLFRTEDYFPCCSERPQL | not soluble |
| MGSCMKWDYGEMEDFSVSASGLFITNEGNFQYSNATLSYYDPATCEVENEVFYRANGFKLGDVAQSMVIRDGIGWIVVNNSHVIFAIDINTFKEVGRITGFTSPRYIHFLSDEKAYVTQIWDYRIFIINPKTYEITGYIECPDMDMESGSTEQMVQYGKYVYVNCWSYQNRILKIDTETDKVVDELTIGIQPTSLVMDKYNKMWTITDGGYEGSPYGYEAPSLYRIDAETFTVEKQFKFKLGDWPSEVQLNGTRDTLYWINNDIWRMPVEADRVPVRPFLEFRDTKYYGLTVNPNNGEVYVADAIDYQQQGIVYRYSPQGKLIDEFYVGLEHHHHHH | soluble |
